Source: patent US11906519B2, “Methods for identifying LILRB-blocking antibodies” (THE BOARD OF REGENTS OF THE UNIVERSITY OF TEXAS SYSTEM, priority 2016, dated 2024)

T1: PirB (Mus musculus, UniProt P97484)
T1 construct: PILRbeta part (fusion partner); expressed in transfected cells
T1 sequence (P97484 25-642): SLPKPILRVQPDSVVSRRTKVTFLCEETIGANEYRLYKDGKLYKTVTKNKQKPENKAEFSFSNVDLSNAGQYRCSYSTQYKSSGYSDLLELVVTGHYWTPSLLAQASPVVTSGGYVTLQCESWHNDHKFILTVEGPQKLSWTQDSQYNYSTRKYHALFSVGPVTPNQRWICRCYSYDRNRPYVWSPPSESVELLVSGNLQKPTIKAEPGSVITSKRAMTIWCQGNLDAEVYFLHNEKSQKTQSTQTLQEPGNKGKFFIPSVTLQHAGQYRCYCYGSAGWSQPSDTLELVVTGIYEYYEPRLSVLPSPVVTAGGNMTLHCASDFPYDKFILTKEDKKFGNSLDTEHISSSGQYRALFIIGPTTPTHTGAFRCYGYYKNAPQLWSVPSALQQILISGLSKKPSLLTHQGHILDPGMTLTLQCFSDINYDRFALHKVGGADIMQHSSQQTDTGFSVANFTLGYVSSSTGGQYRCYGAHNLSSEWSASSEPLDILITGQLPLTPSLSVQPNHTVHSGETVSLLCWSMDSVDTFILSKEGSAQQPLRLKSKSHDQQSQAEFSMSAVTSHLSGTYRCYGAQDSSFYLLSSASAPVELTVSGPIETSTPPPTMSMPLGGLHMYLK

T2: gp49B1 (Mus musculus, UniProt Q64281)
T2 construct: PILRbeta part (fusion partner); expressed in transfected cells
T2 sequence (Q64281 24-238): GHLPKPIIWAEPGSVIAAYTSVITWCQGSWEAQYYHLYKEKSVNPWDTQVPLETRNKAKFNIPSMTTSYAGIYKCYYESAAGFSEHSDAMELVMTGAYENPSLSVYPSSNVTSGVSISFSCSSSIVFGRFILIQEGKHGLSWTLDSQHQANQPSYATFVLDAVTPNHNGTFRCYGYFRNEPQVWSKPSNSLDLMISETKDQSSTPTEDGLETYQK


Columns and labels:
LILRB4 = molecular target: T3, LILRB4 (Homo sapiens, UniProt Q8NHJ6); experiment: LILRB4 chimeric receptor reporter cells (NFAT-GFP); type: cell-based; conditions: for Activation of LILRB4 reporter: percentage of GFP+ reporter cells; for Activation of LILRB4 reporter by APOE isoforms: 40 μg/ml APOEs coated on plates or soluble
T3 construct: fusion of the extracellular domain (ECD) of individual LILRBs and their mouse orthologues; PILRbeta part (fusion partner); expressed in transfected cells
From the text: The inventors sought to determine if antagonizing LILRB4 could prevent AML development by reversing LILRB4-mediated immune inhibition. To identify potential agonists and antagonists of LILRBs, the inventors generated individual stable chimeric receptor reporter cells based on fusion of the extracellular domain (ECD) of individual LILRBs and their mouse orthologues PirB^27 and gp49B1^28, with the intracellular domain of paired immunoglobulin-like receptor β, which signals through the adaptor DAP-12 to activate NFAT promoter-driven GFP expression, as the inventors have described^2, 31. With help from this system, the inventors generated novel anti-LILRB4 blocking antibodies to further assess LILRB4-mediated signaling (FIG. 10).
(§1) Chimeric receptor reporter cells. The inventors constructed a stable chimeric receptor reporter cell system as described^2 31 to test the ability of a ligand to bind to the ECD of individual LILRBs, PirB, and gp49B1 and to trigger the activation or inhibition of the chimerically fused intracellular domain of paired immunoglobulin-like receptor β, which signals through the adaptor DAP-12 to activate the NFAT promoter. If an agonist or antagonist binds the ECD and activates or suppresses the chimeric signaling domain, an increase or decrease, respectively, in GFP expression is observed.
APOE competition assay was used to screen LILRB4 blocking antibodies. Briefly, APOE proteins were pre-coated on 96-well plate at 37° C. for 3 hrs. After 2 times washing by PBS, 2×10^4 LILRB4 reporter cells were seeded in each well; meanwhile, indicated anti-LILRB4 antibodies were added into culture media. After 16 hrs, the percentage of GFP^+ reporter cells was analysed by flow cytometry.

LILRB4-Fc [1] = molecular target: T4, LILRB4-Fc (Homo sapiens, UniProt Q8NHJ6); experiment: Surface plasmon resonance (SPR) binding of APOE to LILRB4-Fc; conditions: APOE 1.5625 nM to 100 nM
From the text: (§2) FIGS. 25a-251—APOE binds LILRB4 and supports AML migration. FIG. 25a: As shown by analysis of the percentage of cells in the LILRB4 reporter system that are GFP^+, human serum and mouse serum specifically activate LILRB4. FIG. 25b: Recombinant APOE activates human LILRB4 and mouse PIRB in reporter systems. FIG. 25c: Serum from APOE-null mouse was unable to activate LILRB4. FIG. 25d: Lipid-reconstituted APOE (APOE-POPC) activates human LILRB4 as well as recombinant APOE in reporter systems. […] Cells stained with anti-His tag-APC served as a negative control. FIG. 25f: Binding kinetics of human APOE-3 to LILRB4-ECD-Fc were measured using surface plasmon resonance (SPR). LILRB4-ECD-Fc was immobilized on Protein A biosensor tips and incubated with APOE-3 concentrations ranging from 1.5625 nM to 100 nM. FIG. 25g: The activation of LILRB4 by APOE was reduced by mutation at N-terminal of APOE. FIG. 25h: The activation of LILRB4 by APOE was reduced by the indicated single amino acid mutation of LILRB4. FIG. 25i-FIG. 25l: APOE is necessary for LILRB4-mediated homing. Forced expression of human lilrb4 on mouse leukemia C1498 cells increases leukemia cell homing in wildtype (WT) recipient mice (n=5) (shown in FIG. 25i). Human lilrb4-expressing C1498 cells (1), but not control GFP-expressing C1498 cells (FIG. 25k), were less capable of homing in APOE-null (KO) mice (n=5) than in WT mice (n=5); Mice were sacrificed at 20 hrs after injection of leukemia cells. GFP was used to detect leukemia cells by flow cytometry.
(§3) FIGS. 29a-29g—Three APOE isoforms bind to human LILRB4. FIGS. 29a-c: Binding kinetics of APOE 2, 3, and 4 to LILRB4-Fc were measured using surface plasmon resonance (SPR). LILRB4-Fc was immobilized on Protein A biosensor tips and incubated with APOE concentrations ranging from 1.5625 nM to 100 nM. […] (FIGS. 29d-f) Binding kinetics of APOE 2, 3, and 4 to LILRB4-Fc were measured using Bio-layer Interferometry (Octet). LILRB4-Fc was immobilized on Protein A biosensor tips and incubated with APOE concentrations ranging from 44 nM to 1176 nM. […] (FIG. 29g) Binding kinetics of APOE 3 to His-LILRB4 was measured using microscale thermophoresis (MST).

PirB = molecular target: T1, PirB; experiment: PirB chimeric receptor reporter cells; type: cell-based
From the text: as §1

gp49B1 = molecular target: T2, gp49B1; experiment: gp49B1 chimeric receptor reporter cells; type: cell-based
From the text: as §1

THP-1 cells [2] = experiment: APOE binding to THP-1 cells by flow cytometry; set-up: species or system human; conditions: lilrb4-knockout versus wild-type THP-1 cells
From the text: as §2, with “Human lilrb4-expressing C1498 cells (1), but not control GFP-expressing C1498 cells (FIG. 25k), were less capable of homing in APOE-null (KO) mice (n=5) than in WT mice (n=5); Mice were sacrificed at 20 hrs after injection of leukemia cells. GFP was used to detect leukemia cells by flow cytometry.” left out

LILRB4-Fc [3] = molecular target: T4, LILRB4-Fc; experiment: Bio-layer interferometry (Octet) binding of APOE to LILRB4-Fc; conditions: APOE 44 nM to 1176 nM
Experimental: as §3
Bio-layer Interferometry. Binding interactions analyses between LILRB4-Fc with APOE2, APOE3, and APOE4 were performed on the Octet RED96 (ForteBio, Pall Corporation). All interaction studies were performed with the protein A dip-and-read biosensors (ForteBio). All binding experiments were performed using the Octet Red and kinetics buffer at 30° C. LILRB4-Fc coated biosensors (25 μg/ml LILRB4-Fc was loaded for 420 s) were washed in kinetics buffer before monitoring of association (300 s) and dissociation (600 s) of APOEs. Background wavelength shifts were measured from reference sensors that were loaded only with LILRB4-Fc.

THP-1 cells [4] = experiment: Transwell trans-endothelial migration of THP-1 cells; type: cell-based, human; conditions: 2.5 μM STAT inhibitor
[5] = tested on: T cells co-cultured with THP-1 cells; experiment: Tumor cell/T cell co-culture assay; type: cell-based, human; conditions: T cells with irradiated THP-1 cells, protein supplemented
Experimental: Tumor cell/T cell co-culture assay. Human T cells isolated from health donor peripheral blood (PB009-1-0, Allcells) were co-cultured with irradiated (28 Gy) THP-1 cells in a U-bottom 96 well-plate for 3-7 days. Anti-CD3/CD28-coated beads (#11161D, Thermo Fisher), 50 U/ml recombinant human IL-2, and 5 ng/ml recombinant human IL-7 were supplemented to the medium. In some experiments, THP-1 cells were cultured in the upper chamber of transwell inserts (pore size is 3 μM, #09-761-80, Thermo Fisher) for the U-bottom 96 well-plate. For primary AML or B-ALL samples, patient CD3^+ T cells were collected and patient leukemia cells were sorted as CD33^+ and CD19^+ for AML and B-ALL, respectively.
CD8^+ T cells (5×10^4 per well) isolated from hPBMCs of a healthy donor (Interstate Blood Bank) were stimulated with anti-CD3/CD28/CD137-coated beads (11163D, Thermo Fisher) or cultured without stimulation for 2 days in a 96-well plate. Then, 5×10^3 human leukemia THP-1-Luc-GFP cells and 50 to 500 μg/ml anti-LILRB4 antibody C84 or control antibody mIgG were added. Cell numbers were determined on day 7 in triplicate wells. Anti-CD8 and anti-CD28 were used to detect human CTL cells; THP-1 cells were positive for GFP. […]

T4 sequence (Q8NHJ6 22-259 limits assumed): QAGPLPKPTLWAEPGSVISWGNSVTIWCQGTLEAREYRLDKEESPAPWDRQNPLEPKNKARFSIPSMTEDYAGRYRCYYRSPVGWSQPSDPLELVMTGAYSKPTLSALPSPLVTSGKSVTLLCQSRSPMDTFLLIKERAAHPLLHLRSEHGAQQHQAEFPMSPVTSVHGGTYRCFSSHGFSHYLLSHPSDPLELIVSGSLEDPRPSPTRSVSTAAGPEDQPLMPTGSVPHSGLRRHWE
T3 sequence (Q8NHJ6 with tags, fused parts or gaps): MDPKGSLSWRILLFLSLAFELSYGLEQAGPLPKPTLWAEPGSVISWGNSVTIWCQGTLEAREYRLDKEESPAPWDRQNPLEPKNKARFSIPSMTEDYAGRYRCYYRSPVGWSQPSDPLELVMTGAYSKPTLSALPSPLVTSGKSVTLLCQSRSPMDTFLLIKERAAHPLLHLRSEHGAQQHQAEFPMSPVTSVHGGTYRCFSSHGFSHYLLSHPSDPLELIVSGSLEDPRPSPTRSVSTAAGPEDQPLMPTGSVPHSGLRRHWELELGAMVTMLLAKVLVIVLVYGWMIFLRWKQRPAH

Row | Molecule | Activation of LILRB4 reporter (LILRB4) | Kd (LILRB4-Fc [1]) [nM] | Kd (LILRB4-Fc [3]) [nM] | Activation of LILRB4 reporter by APOE isoforms (LILRB4) | also measured
1 | APOE-POPC: liposome-reconstituted APOE protein | same ability as lipid-free APOE protein | – | – | – | –
2 | recombinant APOE: recombinant APOE protein, isoform not stated at the place | activates | 2 | – | – | Activation of mouse PirB reporter (PirB): specifically activated; Activation of gp49B1 reporter (gp49B1): not; Binding of APOE to THP-1 cells (THP-1 cells [2]): significantly decreased
3 | APOE3: isoform of human APOE, ligand of LILRB4 | – | 2.48 | 61.7 | activate | –
4 | O=[N+]([O-])c1ccc2c(c1)S(=O)(=O)C=C2 [stattic, reference compound] | – | – | – | – | THP-1 cell transmigration across endothelial cells (THP-1 cells [4]): decreases
5 | APOE4: isoform of human APOE, ligand of LILRB4 | – | 3.57 | 48.4 | activate | –
6 | APOE2: isoform of human APOE, ligand of LILRB4 | – | 5.53 | 60.7 | activate | –
7 | Mut-N: N-terminal mutant of human APOE: R142A/K143A/R145A/K146A/R147A/R150A (protein) KVEQAVETEPEPELRQQTEWQSGQRWELALGRFWDYLRWVQTLSEQVQEELLSSQVTQELRALMDETMKELKAYKSELEEQLTPVAEETRARLSKELQAAQARLGADMEDVCGRLVQYRGEVQAMLGQSTEELRVRLASHLAALAAALLADADDLQKRLAVYQAGAREGAERGLSAIRERLGPLVEQGRVRAATVGSLAGQPLQERAQAWGERLRARMEEMGSRTRDRLDEVKEQVAEVRAKLEEQAQQIRLQAEAFQARLKSWFEPLVEDMQRQWAGLVEKVQAAVGTSAAPVPSDNH | significantly reduced | – | – | – | –
8 | mouse APOE: mouse APOE protein (protein) EGEPEVTDQLEWQSNQPWEQALNRFWDYLRWVQTLSDQVQEELQSSQVTQELTALMEDTMTEVKAYKKELEEQLGPVAEETRARLGKEVQAAQARLGADMEDLRNRLGQYRNEVHTMLGQSTEEIRARLSTHLRKMRKRLMRDAEDLQKRLAVYKAGAREGAERGVSAIRERLGPLVEQGRQRTANLGAGAAQPLRDRAQAFGDRIRGRLEEVGNQARDRLEEVREHMEEVRSKMEEQTQQIRLQAEIFQARLKGWFEPIVEDMHRQWANLMEKIQASVATNPIITPVAQENQ | can activate | – | – | – | –
9 | CCL4: CCL4 protein supplemented in co-culture media (protein, UniProt P13236 24-92, looked up) C-C motif chemokine 4: APMGSDPPTACCFSYTARKLPRNFVVDYYETSSLCSQPAVVFQTKRSKQVCADPSESWVQEYVYDLELN | – | – | – | – | T cell proliferation in coculture [5]: suppressed
